In series [1] the target is T1, LS12 E34S (Archaeoglobus fulgidus scaffold, laboratory-evolved) (UniProt O29494).
T1 sequence: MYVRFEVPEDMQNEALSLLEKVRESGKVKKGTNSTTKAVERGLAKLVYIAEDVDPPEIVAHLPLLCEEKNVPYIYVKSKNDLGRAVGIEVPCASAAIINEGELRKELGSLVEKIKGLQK
Kind of series: SPR. Particulars: SPR: 10 mM HEPES pH 7.4, 150 mM NaCl, 1 mM MgCl2, 0.05% P20, 0.25 mM TCEP, 0.1 mg/ml BSA, 25 ug/ml yeast tRNA, 25 C, EMSA: 10 mM HEPES-KOH pH 7.5, 140 mM KCl …. Background: Mobility shift assays separate free from complexed probe on a gel.

The target of series [2] is LS4 (Archaeoglobus fulgidus scaffold, laboratory-evolved) (UniProt O29494). The experiment in a line: SPR. As to conditions: SPR: 10 mM HEPES pH 7.4, 150 mM NaCl, 1 mM MgCl2, 0.05% P20, 0.25 mM TCEP, 0.1 mg/ml BSA, 25 ug/ml yeast tRNA, 25 C; EMSA: 10 mM HEPES-KOH pH 7.5, 140 mM KCl ….
The target in series [3] is T1, LS12 E34S (Archaeoglobus fulgidus scaffold, laboratory-evolved). Kind of series: EMSA. Particulars: titration regime; SPR: 10 mM HEPES pH 7.4, 150 mM NaCl, 1 mM MgCl2, 0.05% P20, 0.25 mM TCEP, 0.1 mg/ml BSA, 25 ug/ml yeast tRNA, 25 C; EMSA: 10 mM HEPES-KOH pH 7.5, 140 mM KCl ….
The target in series [4] is LS4 (Archaeoglobus fulgidus scaffold, laboratory-evolved) (UniProt O29494). The experiment in a line: EMSA. Particulars: titration regime; SPR: 10 mM HEPES pH 7.4, 150 mM NaCl, 1 mM MgCl2, 0.05% P20, 0.25 mM TCEP, 0.1 mg/ml BSA, 25 ug/ml yeast tRNA, 25 C; EMSA: 10 mM HEPES-KOH pH 7.5, 140 mM KCl ….

In series [1], “GGCAGAGAAAGGCCAUACAAUCAUUGGCUUUUCCAUGACGCCAGUUCCAGUGGCAUCGACGAAAGACACAGAACG [LS12-1]” displayed a dissociation constant Kd of 0.0105 nM.

“GGUGGCAAAGAAAGGCGAAAGCCUUGUGAGGCCAUCAAAUCGACGAAAGACACAGAACG [CS1-M2b]” displayed a Kd fold change relative to LS4 (fold higher Kd than LS4) in series [1] of 1270. This sequence also showed a dissociation constant Kd in series [2] of 0.0865 nM.

In the case of “GGUGGCAUAGAAAGGCGAAAGCCUUGUGUGGCCAUCAAAUCGACGAAAGACACAGAACG [CS1-M2]”, the figures for the Kd in series [1] (N.D. in Table S4) and in series [2] were more than 1000 nM and 2.21 nM, respectively.

In series [3], “AGAGGCAGAGAAGGAAACUUCCAUGACGCCUCU [Cy5-CS2]” gave a Kd of less than 0.5 nM.

“AGAGGCAGAGAAAGGGAAACCUUGUGAGGCCUCU [Cy5-CS1]” showed a Kd in series [4] of less than 0.5 nM.

“GGUGGCAGAGAAAGGCGAAAGCCUUGUGAGGCCAUCAAAUCGACGAAAGACACAGAACG [CS1]”: the Kd is 27.5 nM in series [1] (equilibrium analysis) and 0.00682 nM in series [2].

For “GGCAGAGAAAGGCCAUACAAUCAUUGGCCUUGUGAGGCCGUGUGUCUUCCAGUGGCAUCGACGAAAGACACAGAACG [LS4-1]”, in series [2], the Kd amounted to 0.0736 nM.

As to “GGAUGCAGAGAACGAAAGUUCCAUUACGCAUCCAAAUCGACGAAAGACACAGAACG [CS2-M3]”, the Kd in series [1] came out at 6.02 nM.

Regarding “GGAUCGCGUGAUCCGAAAGGUGACGAUCCAAAUCGACGAAAGACACAGAACG [Box C/D Kt (Kt_SPR)]”, the dissociation constant (Kd) was found to be 14.5 nM in series [1] and 599 nM in series [2].

Turning to “GGAUGCAGAGAACGAAAGUUCCAUGACGCAUCCAAAUCGACGAAAGACACAGAACG [CS2]”, the equilibrium dissociation constant (Kd) was 0.00724 nM in series [1] and 114 nM in series [2].

For the sequence “GGUGGCUGAGAAAGGCGAAAGCCUUGUGAUGCCAUCAAAUCGACGAAAGACACAGAACG [CS1-M1]”, the figures for the Kd in series [1] (equilibrium analysis) and in series [2] were 7.7 nM and 0.171 nM, respectively.

By Kd is commonly meant the free concentration of one partner at which half of the binding sites on the other are occupied at equilibrium, for simple one-to-one binding. High values mean lower affinity, low ones higher affinity.

Values taken from paper PMC8789040.
